{
  "source": "paper PMC5497592",
  "about": "(Biochemistry, 2011)",
  "proteins": {"B1": {"name": "HpUreI, the urea channel from Helicobacter pylori (natural protein)", "chain": "MLGLVLLYVGIVLISNGICGLTKVDPKSTAVMNFFVGGLSIICNIVVITYSALHPTAPVEGAEDIAQVSHHLTSFYGPATGLLFGFTYLYAAINHTFGLDWRPYSWYSLFVAINTIPAAILSHYSDMLDDHKVLGITEGDWWAIIWLAWGVLWLTAFIENILKIPLGKFTPWLAIIEGILTAWIPAWLLFIQHWV"}},
  "molecular_target": "the molecule itself",
  "assay": "cross-linking",
  "data": [
    {"protein": "B1", "values": [
      {"measurement": "stoichiometry N", "value": 3}
    ]}
  ]
}
